Source: the DeepSol protein solubility set

Test: soluble on expression in E. coli; label from the status in PepcDB or PDB records

Sequence | soluble on expression in E. coli
MENAKMNSLIAQYPLVKDLVALKETTWFNPGTTSLAEGLPYVGLTEQDVQDAHARLSRFAPYLAKAFPETAATGGIIESELVAIPAMQKRLEKEYQQPISGQLLLKKDSHLPISGSIKARGGIYEVLAHAEKLALEAGLLTLDDDYSKLLSPEFKQFFSQYSIAVGSTGNLGLSIGIMSARIGFKVTVHMSADARAWKKAKLRSHGVTVVEYEQDYGVAVEEGRKAAQSDPNCFFIDDENSRTLFLGYSVAGQRLKAQFAQQGRIVDADNPLFVYLPCGVGGGPGGVAFGLKLAFGDHVHCFFAEPTHSPCMLLGVHTGLHDQISVQDIGIDNLTAADGLAVGRASGFVGRAMERLLDGFYTLSDQTMYDMLGWLAQEEGIRLEPSALAGMAGPQRVCASVSYQQMHGFSAEQLRNTTHLVWATGGGMVPEEEMNQYLAKGR | soluble
MQHYLLDSNQRLNVSFSKDSVAAYYQCFNQPYRKEVPPLMCASLWPKFDLFKKYANSELILTKSAINQTQKIEVDTIYVGHLEDIECRQTRNITRYTMALTLTKNDQHVITVTQTFIKAMKLEHHHHHH | soluble
INLSTLPEHLTYLVRSSRVLQELHESEAQNRALLNAIPDMMLHVCREGTILDFRAGNGCAYAAFGGNLRGRTIADLLPPGAAAQFMAQVGHALATGTMMVCEYELEGPGGLNTHEARIVANG | not soluble
MEDDPVWRFDDRDVILYNIALGATTKQLKYVYENDSDFQVIPTFGHLITFNSGKSQNSFAKLLRNFNPMLLLHGEHYLKVHSWPPPTEGEIKTTFEPIATTPKGTNVVIVHGSKSVDNKSGELIYSNEATYFIRNCQADNKVYADRPAFATNQFLAPKRAPDYQVDVPVSEDLAALYRLSGDRNPLHIDPNFAKGAKFPKPILHGMCTYGLSAKALIDKFGMFNEIKARFTGIVFPGETLRVLAWKESDDTIVFQTHVVDRGTIAINNAAIKLVGDKAKI | soluble
MALELSDIRQQITQIDRSLLKLLSERHRLAFDVVRSKEISQKSLRDVEREQQLLQELVQFAENENYQLEAQYITSIFQKIIEDSVLTQQVYLQNKLNEQRNQNLHIAFLGKRGSYSNLAARNYAARYQKQFVELGCQSFEQVFEKVQTGEADFGVLPLENTTSGAINEVYDLLQHTDLSLVGELAYPIKHCVLVNDKTDLNQIDTLYSHPQVIQQCSQFIHSLDRVHIEYCESSSHAMQLVASLNKPNIAALGNEDGGKLYGLSVLKTNIANQENNITRFIVVAKEPREVSSQIPTKTLLLMTTSQQAGALVDALLVFKKHQINMTKLESRPIYGKPWEEMFYLEIEANIHHPDTKQALEELKNYSNYLKILGCYPSEIVKPVSV | not soluble
MSIPINFNNLKYLLNDMRNKNRIIEAFPFNYNQRQYAVILTRYKPDEPRPDDYAQAKLEFFNLNSENSIFAYADFYEVHFKSATDFINFFKINVQAGAAKIREIFQSFSNLFADFIPTQTKKDLDIIYKKIVATRLEPNSPNTIYCYDVRRNGKDKAGKPNRRSVENSEKAKILRPELYEKFKADSNYSFFFSDNPSDEKTDAEIIREVTNRQ | not soluble
MGSDKIHHHHHHMNYRERIAQSITPLQGNLFRVVESQEDIATARIVDSMQEQNRLEELLESNKPPVPGTARKRHYLLTTPFRYPPLKYGSRFGRSFEPSLFYGAMSIPTALAETAFYRFVFMSHLKVPFKRPLTTLHTVFSARFRTERGVRLQSEHWQDLHHTLADPVSYRESQAVGTDMRSLQVGAFQFLSARALQAGLYALPYHPDNGVEGVNVALFNASVFRDAAPRSYQKLIAVTSPSQVSMSLSEPDGSKKVYEFSLDQFLVEGELPQPAP | not soluble
MHESIQMIIDRIDHLVLTVSDISTTIRFYEEVLGFSAVTFKQNRKALIFGAQKINLHQQEMEFEPKASRPTPGSADLCFITSTPINDVVSEILQAGISIVEGPVERTGATGEIMSIYIRDPDGNLIEISQYVLEHHHHHH | not soluble
MKRTIILFDINETVLNLSALKPKFKATFGDESVMATWFSMLLHSSTVCIMTSVKTDFATLAGTMLESIAARMSIKLSKAARDDILAGFANLPPHNDIKPALAQLKSAGFRTVAFSNSSLNLISTQITNAGLKEYFDDIISVEETGSFKPDPTVYKFAAKRLNQPLESLRLVATHDWDTHGALSVEMRAAYINRSGAVYHPLYRQPDIYATTMEDIVKLIIEKDD | not soluble
RADLQYLLNHPDPTEYKEKPLPYPFLTHWLHDIQEQTISKRLDESAGSAGEVSFIFVPCYLNRKDGIFGLGYYDLLIGMDLTVFPSYYEPWGYTPLES | not soluble
MSLTVDFSRFPLAPGDRVLDLGCGAGRHAFECYRRGARVVALDQNAEEIREVAKWFAAMEEAGEAPAGATATAMEGDALALPFPDESFDVVIISEVMEHIPDDKGVLAEMVRVLKPGGRIAITVPRYGPEKVCWTLSDAYHEVEGGHIRIYRADQLLTRIREAGLKPYGTHHAHALHSPYWWLKCAFGVDNDKALPVRAYHKLLVWDIMKKPLATRVAEQALNPLIGKSFVAYATKPHLPPVDAEGHHHHHH | soluble
MGSDKIHHHHHHMFPDGEISDVVVIGGGPAGAICALALARAGVDVKLMYWGGYAPGGIELVSGRGRHFIEQYCPDFFSEVVHGIEIHETASLWDTAEPVIFNAMFNPWGAGVAIERSLLDGALRNLASGAGGTIIPDAKVVDVERQHDRWRLIARSSEDASSNETTSRAGEFAIYARFIVLATGRVPLPFFDHAPVAESSQIALMTSLQARIAPRHTLYVEGTRNGWWYALPAEKGYFASFCIGRNELKQRQSRLKDFFFQELQCTRLLAPLSAGAFDQRPIAGRMAGATMFPAMGGDAWIAVGDATAAPDPLSGTGIEWAIESAQLGADMLLEALHGSKGNVLFDLPRYENTIRRRIAAQEKTAAYHYHRLKEIRET | not soluble
MGSDKIHHHHHHGAGVSTGSKLPDFRGKQGVWTLQAEGKHAEGVDFQVARPGVSHKSILALHKAGYIKTIITQNVDGLDRKVGIPVEDLIEVHGNLFLEVCQSCFSEYVREEIVMSVGLCPTGRNCEGNKRTGRSCRGKLRDATLDWDTEISLNHLDRIRKAWKQTSHLLCIGTSLEIIPMGSLPLDAKSKGIKTTTINYQETAHEKIVETAIHADVKLILYSLCNALGVNVDLGDDLPDEVPIPLKIS | not soluble
MDNQPYNPLHGLTLKTIVTELEAYFGFETLGKTIKIKCFTDDPSIQSTLKFLRKTPWAREKVEQLYIKNKIKIQNSFESGDLDLEHHHHHH | not soluble
MTENAQDKARQAVETVVKSPELVEQILSDEYVQIMIARCFHSGPLPPPSDLAQYNDIISNGADRIMAMAEKEQAVRHETIRQDQTFNRRGQ | not soluble
MEKNYYVCTGCGMLCDDIEVDVENNKINKVYTACRIGVAHMKDGKESAAFLVDNKPVDETTAISEAATILKNAKNPLIFGLGTSSNEAQKLAIELAKKTSATLDDASSFSLGEVIEALLNNKTKVCTLDDVRNKADVSIFWGTDPSDSHPRQLSKYAYFPRGTEKQRGWEEERTAICIDVRKSHTAKICGNYFFQIPPGGDAEFIDALIAALAGKLPKTSYNFPPKRILELANILKGAKFGVVFAGRGLVYSLDNLEPLIRLMNALNEKANFHLVPMIRQYNTRGFNENLFKETGYVNSVKFEDGTVKHGPEYSVVESLKEKTVDAALIIGSDPFSILPRSIAKNLLEVPVIVLDPCETLTSRNAKVYISTAIDGVESGGSAIRMDGVKVDFKPAVETKRPSDETVLKKIMEAL | not soluble
MRKRARIIYNPTSGKELFKRVLPDALIKLEKAGYETSAYATEKIGDATFEAERALESEYDLLIAAGGDGTLNEVVNGIAEQPNRPKLGVIPMGTVNDFGRALHLPSDIMGAIDVIIDGHTTKVDIGKMNNRYFINLAAGGKLTQVSYETPSKLKSIVGPFAYYIKGFEMLPQMKAVDVRIEYDDNIFQGEALLFLLGLTNSMAGFEKLVPDAKLDDGYFTLIIVEKANLAELGHIMTLASRGEHTKHPKVIYAKAKSINISSFTDMQLNVDGEYGGKLPANFLNLEQHIEIFTPKDVFNEELLENDTITDITPDKQ | not soluble
MKITYIHHSSFLVELEHVSMLFDYYAGQLPEIRKDRPLVVFASHFHGDHFAPVIFDLAKDREDVNYVLSKDISKKKVPDNLIGRVTFVKAGEKLALYTEGRKAGLEIETFKSTDEGVAFWITCEGSTIYHAGDLNNWWWEGEDKAWNHNMAANYAHEMEKMEGRTVDAAFVPLDPRLEQWFYLGMKEFMEKVDAKAVIPMHFWKDYSIIEKMRQHPSSEGWRERLVEIHREGEELAI | not soluble
